Entries after “also recorded” stand apart in the source; their conditions may differ.
Legend:
[1] = target: T1, Cx43 CT (amino acids 255 to 382) (Rattus norvegicus, UniProt P08050); experiment: Surface plasmon resonance, Cx43 CT analyte; type: binding; conditions: biotin-peptide immobilized on streptavidin chip; analyte 0.5 to 15 μM
T1 construct: Cx43-CT: amino acids 255 to 382; GST (N, cleaved yes); made in house; host or cells: E. coli BL21
Description: (§1) Efficacy of the interaction of each alpha CT1 variant with Cx43 CT or Cx43 CT-KK/QQ was tested using surface plasmon resonance (SPR) as described previously 20. In brief, SPR experiments were performed using a Biacore T200 (GE Healthcare). Equal amounts (response units/RU) of biotin-alpha CT1 variants were immobilized on each flow cell of a streptavidin-coated sensor chip (Biacore Inc) using immobilization buffer (in mM: 10 HEPES, 1 EDTA, 100 NaCl, 0.005% Tween-20) at pH 7.4. Measurements with wild-type (wt) Cx43 CT and mutant Cx43 CT-KK/QQ analytes were done in running buffer (in mM: 10 HEPES, 100 NaCl, pH 7.4) at a flow rate of 30 μl/min. Binding of analytes were verified at different concentrations, in random order (injection volume 120 μl). Interacting proteins were then unbound by injection of […] regeneration buffer (50 mM NaOH and 1 M NaCl) at a flow rate of 10 μl/min. Background levels were obtained from a reference cell containing a biotin-control peptide in which the reversed sequence of the last 9 amino acids of Cx43 was fused to biotin-antennapedia. The RU values obtained with biotin-control peptide were subtracted from the RU values obtained with the different biotin-alphaCT1 variants (wild-type or mutant) to generate the different response curves.

Cx43 CT-KK/QQ = target: T2, Cx43 CT-KK/QQ (Rattus norvegicus, UniProt P08050, K345Q/K346Q); experiment: Surface plasmon resonance, Cx43 CT-KK/QQ analyte; type: binding; conditions: biotin-peptide immobilized on streptavidin chip
T2 construct: pGEX-6-P2 Cx43 CT amino acids 255-382; GST (N, cleaved yes); made in house; host or cells: E. coli BL21
T2 sequence (P08050 255-382 K345Q/K346Q): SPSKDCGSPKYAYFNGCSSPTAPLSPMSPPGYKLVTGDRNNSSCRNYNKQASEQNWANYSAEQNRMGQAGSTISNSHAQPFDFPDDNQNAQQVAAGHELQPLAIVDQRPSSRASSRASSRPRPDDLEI
Source text: Peptides were synthesized and quality checked for fidelity and purity using High Performance Liquid Chromatography and mass spectrometry (LifeTein, Hillsborough, NJ). Biotinylated peptides were designed for surface plasmon resonance experiments. Glutathione-S-Transferase (GST) fusion protein constructs composed of the Cx43-CT (pGEX-6-P2 Cx43 CT amino acids 255-382), ZO-1 PDZ1, PDZ2 and PDZ3 were isolated and purified from isopropyl-b-D-thiogalactoside (IPTG)-induced BL21 bacteria using standard procedures, described in references 13, 14, 20. The pGEX6p2-Cx43 CT plasmid was obtained from Prof. Paul L. Sorgen (University of Nebraska Medical Center, USA). Cx43 CT mutant (Cx43 CT-KK/QQ; amino acids Lys345 Lys346 to Gln 345 Gln 346) was developed by site-directed mutagenesis of the pGEX6p2-Cx43 CT plasmid (Agilent technologies, QuikChange II Site-Directed Mutagenesis Kit). The mutation was verified by sequencing. For surface plasmon resonance experiments, the GST was removed using PreScission protease, yielding Cx43 CT protein (wild-type or mutant).
as §1

Cx43 CT = target: T3, Cx43 CT (Rattus norvegicus, UniProt P08050); experiment: Protein thermal shift assay, Cx43 CT; type: binding; conditions: 500 μg/ml protein, 25-100 μM peptide
T3 construct: CT: amino acids 255 to 382) alone; GST (N); made in house; host or cells: E. coli BL21
T3 sequence (P08050 255-382): as the sequence (P08050 255-382 K345Q/K346Q) above, with Q91K, Q92K counted along it
Description: (§2) Thermal stability of recombinant GST-PDZ2 or Cx43 CT in the presence or absence of peptides was determined in a 96-well format. Each assay well was composed of 500 μg/ml protein, 25-100 μM of each peptide in PBS buffer, pH7.4. All assays were performed independently six times. Samples were generally prepared in 96-well plates at final volumes of 20 μL. The fluorescent dye SYPRO Orange (5000× concentrate in DMSO, ThermoFisher, S6650) was added to a final concentration of 8X. Reactions were run on QuantStudio 6 Flex Real-Time PCR system (Applied Biosystems, part of Life Technologies Corporation, CA) according to the manufacturer's recommendations using a melt protocol in 0.05-degree/see increments from 25° C. to 95° C. The Reporter Dye was “ROX” and quencher Dye and passive reference were selected as “None” for the melt curve according to manufacturer's instructions. The data were analyzed using Protein Thermal Shift™ Software v1.3 package (Applied Biosystems, CA).

ZO-1 PDZ2 = target: T4, ZO-1 PDZ2 (Homo sapiens, UniProt Q07157); experiment: Protein thermal shift assay, ZO-1 PDZ2; type: binding; conditions: 500 μg/ml protein, 25-100 μM peptide
T4 construct: the second of the three PDZ (PDZ2) domains of ZO-1; made in house; host or cells: E. coli BL21
T4 sequence (Q07157 186-264 limits assumed): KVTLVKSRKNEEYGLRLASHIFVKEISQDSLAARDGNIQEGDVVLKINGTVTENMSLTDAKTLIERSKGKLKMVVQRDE
Description: as §2

[2] = target: T5, PKC-ε phosphorylation of Cx43-CT substrate at Ser368 (Rattus norvegicus, UniProt P08050); experiment: PKC-ε Cx43 CT S368 phosphorylation assay; type: biochemical; conditions: peptides at 20 μM
T5 construct: substrate (Cx43-CT: amino acids 255 to 382); GST (N); made in house; host or cells: E. coli BL21 (Cx43 CT); PKC-ε purchased (Life, 37717L)
T5 sequence (P08050 255-382): as the sequence (P08050 255-382 K345Q/K346Q) above, with Q91K, Q92K counted along it
Description: PKC assay conditions were used to evaluate the PKC-ε phosphorylation of Cx43-CT substrate at Ser368 as we have described previously, with modifications 11. 400 ng/ml […] (Life, 37717L, Carlsbad, CA) was pre-diluted in enzyme dilution buffer (10 mM HEPES pH7.4, 0.01% CHAPS and 5 mM DTT) and assayed in 20 mM HEPES pH7.4, 10 mM/L MgCl2, 0.1 mM EGTA, 1× lipid mix (200 μg/ml phosphatidylserine (Avanti Polar Lipids 840032C),^20 μg/ml Diacylglycerol (Avanti Polar Lipids), 1 mM HEPES pH7.4, 0.03% CHAPS), 500 µM ATP (Sigma, A6419) and 14 μg/ml Cx43-CT substrate. Kinase assay buffer was supplemented with peptides to produce final concentrations of the reaction constituents, as indicated in figure legends. The mixture was incubated at 37° C. for 12 minutes and quenched by addition of LDS sample loading buffer (Bio Rad, 1610791). “XT sample buffer” is what was shown on the product label, whereas the component is similar as regular LDS buffer, containing about 5-10% lithium dodecyl sulphate. The reaction was Western blotted for pS368 Cx43 using the Phospho-Connexin43 (Ser368) antibody from Cell Signaling. Proteins were eluted off by stripping buffer (Millipore 2504) and re-probed for total Cx43 using the Sigma anti-rabbit antibody. Percent phosphorylation (% P) was quantified using Equation 1 and normalized with control group (PKC+, no peptide added).

[3] = system: Neonatal cardiac fibroblasts (NHFs); experiment: Collagen synthesis by neonatal cardiac fibroblasts, Western blotting; type: cell-based, rat
Source text: Isolation and treatment of Neonatal Cardiac Fibroblasts with Cx43 based peptides (peptides used included ACT1, JM1, JM2, Antennapedia [ANT], reverse ACT1 [Rev], poly Arginine [poly r]). Said peptides with and without internalization vectors can be loaded into the provided EVs and can elicit results similar to those observed for naked peptide as follows. Neonatal cardiac fibroblasts (NHFs) were isolated from 3-4 day old rat hearts by collagenase digestion (100 U/mL) and differential attachment as previously described (Borg et ah, 1984). All cells were maintained in Dulbecco's Modified Eagle Medium (DMEM) supplemented with 10% Fetal Bovine Serum and 100 U/mL penicillin G and 100 μg/mL streptomycin and used prior to passage four. For experiments, 40,000 NHFs were plated into the wells of a 24-well tissue culture plate and grown for 24-48 hours. On the day of treatment, media was removed from each well and replaced with fresh media containing 50 μg/mL L-ascorbic acid-2-phosphate; Sigma Chemical Co., St. Louis, MO). The appropriate volume of each peptide (resuspended in sterile, deionized 18 MQ resistivity water) was added to achieve the desired final concentration (30, 90, 180 µM peptide concentrations were tested). Culture plates were incubated overnight in a 37° C. incubator with 5% C02.
Protein Isolation and Examination of Collagen Synthesis by Western Blotting. Conditioned culture media was collected from each well and stored at −20° C. for analysis of soluble collagen. Cellular protein, including insoluble collagen and collagen still within the NHFs, were isolated by adding 100-200 μL, of cell lysis buffer (0.01 M Tris, pH 7.4, 0.001 M Sodium Orthovanadate, 1% sodium dodecylsulfate [SDS]) to each well and incubating 10 minutes at room temperature. Prior to addition, cell lysis buffer was warmed to facilitate solubilization of SDS and 100 u L of Halt protease inhibitor (Pierce Biotechnology, Rockford, IL) was added per 10 mL buffer to be used. After incubation, the well bottoms were scraped and liquid transferred to a microcentrifuge tube for storage at −20° C. Protein concentrations of cell lysates were determined using a Micro BCA assay (Pierce). SDS-PAGE samples were prepared by combining either 10 μg of cell lysate or 30 μL of conditioned media with XT loading buffer (BioRad, Hercules, CA), dithiothreitol and boiled for five minutes. Samples were loaded onto 3-8% Tris-Acetate Criterion X T gels (BioRad, Hercules, CA) and proteins separated at 140V. After electrophoresis, proteins were transferred onto […] nitrocellulose membranes (BioRad) overnight at room temperature (Transfer buffer: 25 mM Tris, 192 mM Glycine, 20% Methanol, 0.01% SDS). The presence of collagen was determined by probing the membranes with a rabbit anti-mouse collagen type I antibody (MD Biosciences) at 1:20,000 dilution in blocking buffer (5% milk in Tris-buffered saline) followed by a goat anti-rabbit IgG horseradish peroxidase conjugated antibody at 1:100,000 (Southern Biotech Associates) and detection with Pierce SuperSignal Femto West detection reagent (Pierce). To assess the activity of JM1 and JM2 peptides with respect to collagen production and their potential in mediating wound healing, cardiac fibroblasts were treated with these two peptides and their effectiveness compared to that for the previous described Cx43 peptide ACT1. NHFs were treated with various concentrations of JM1, JM2, ACT1, and ANT (Antennapedia) peptides, vehicle (water) or left untreated and the production of collagen both in the culture media and cell-associated collagen assessed by western blotting. […] To evaluate the impact of the poly-Arginine (poly-r)N-terminal sequence on JM1 and Jm2 activity, NHF cells were treated with a poly-r peptide.

Cx43-HeLa = type: cell-based
Description: The first tests of JM1 and JM2 were performed and the experiments centered on the basic cell biology of the peptides.

Cx43-Hela cells = experiment: Cx43 and ZO-1 immunofluorescent labeling; type: cell-based; conditions: 10 μM for 2, 4, 24, or 48 hours
Description: Given that the 10UM concentration of peptide was not toxic to cells, the inventors treated Cx43-Hela cells with 10 μM JM1 or JM2 for 2, 4, 24, or 48 hours followed by fixation and immunofluorescent labeling of Cx43 and ZO-1. Said peptides can be loaded into the provided EVs and can elicit results similar to those observed for naked peptide as follows. […] However, the most striking effects were on ZO-1 organization. In control cells ZO-1 localized to cell borders, often at sites of small, finger-like projections between the cells. Cytoplasmic ZO-1 was also notable. In JM-treated cells a strong contrast in the ratio of cell border to cytoplasmic ZO-1 was found, with relative levels at cell borders being increased over controls. […] There was also a noticeable increase in the number of cells per area of field, supporting the earlier observation that JM2 treated cells appeared to proliferate and survive at an increased rate.

silicon wafer implants = conditions: 24 hours; cited from earlier work

T1 sequence (P08050 255-382): as the sequence (P08050 255-382 K345Q/K346Q) above, with Q91K, Q92K counted along it

Row | Sequence | SPR binding to Cx43 CT [1] | SPR binding to Cx43 CT-KK/QQ (Cx43 CT-KK/QQ) | Cx43 CT melt temperature (Tm) (Cx43 CT) | PDZ2 melt temperature (Tm) (ZO-1 PDZ2) | Cx43 S368 phosphorylation [2] | mature type I collagen in conditioned media ([3]; 180 μM) | mature type I collagen in conditioned media ([3]; 30, 90, 180 µM) | collagen produced versus poly-r peptide ([3]; about 90 μM) | mature type I collagen in cell lysate ([3]; versus ACT1 peptide) | toxicity (cell death) (Cx43-HeLa) | Cx43 and ZO-1 localization (Cx43-Hela cells) | tissue reaction zone (silicon wafer implants)
1 | RQPKIWFPNRRKPWKK RPRPAALEI (RQPKIWFPNRRKPWKKRPRPAALEI) [M2 AALEI] | abrogated peptide interaction with Cx43 CT; also recorded: limited ability to bind Cx43 CT | unable mediate interactions | no propensity to alter Cx43 CT thermal stability | did not alter the melt temperature of PDZ2 | neither M1 AALAI (SEQ ID NO: 134), M2 AALEI (SEQ ID NO: 135) nor M3 DDLAI (SEQ ID NO: 136) increased Cx43 S368 phosphorylation |  |  |  |  |  |  | 
2 | VFFKGVKDRV [JM1] |  |  |  |  |  | no mature type I collagen was detected | dose-dependent decrease in the production of mature, type I collagen | less than half of that produced by cells treated with the poly-r peptide | more profound reduction in the amount of mature type I collagen | no obvious toxicity | greater cytoplasmic Cx43 was observed; also recorded: ZO-1 cell border labeling was enhanced | substantially narrower tissue reaction zone

Source: patent publication US20250221936A1, “ENGINEERED HEMICHANNELS, ENGINEERED VESICLES, AND USES THEREOF” (VIRGINIA TECH INTELLECTUAL PROPERTIES, INC., priority 2018, published 2025)
